Patent US7067277B1, “Chimeric G proteins and uses thereof” (H. Lundbeck A/S, priority 1999, dated 2006)

T1: h GALR1 (Homo sapiens, UniProt P47211)
T1 construct: expressed in transfected cells; host or cells: COS-7
T1 sequence (P47211 1-349): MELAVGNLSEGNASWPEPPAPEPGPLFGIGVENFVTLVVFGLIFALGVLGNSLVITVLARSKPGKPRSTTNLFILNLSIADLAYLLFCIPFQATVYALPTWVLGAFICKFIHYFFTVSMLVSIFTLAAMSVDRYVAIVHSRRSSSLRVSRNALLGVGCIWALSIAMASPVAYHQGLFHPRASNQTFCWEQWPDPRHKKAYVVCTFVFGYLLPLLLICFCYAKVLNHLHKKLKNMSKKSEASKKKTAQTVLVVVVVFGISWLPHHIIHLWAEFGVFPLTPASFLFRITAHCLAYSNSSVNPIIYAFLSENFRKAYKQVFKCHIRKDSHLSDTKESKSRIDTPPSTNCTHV

T2: h α2A adr (Homo sapiens, UniProt P08913)
T2 construct: expressed in transfected cells; host or cells: COS-7
T2 sequence (P08913 1-465): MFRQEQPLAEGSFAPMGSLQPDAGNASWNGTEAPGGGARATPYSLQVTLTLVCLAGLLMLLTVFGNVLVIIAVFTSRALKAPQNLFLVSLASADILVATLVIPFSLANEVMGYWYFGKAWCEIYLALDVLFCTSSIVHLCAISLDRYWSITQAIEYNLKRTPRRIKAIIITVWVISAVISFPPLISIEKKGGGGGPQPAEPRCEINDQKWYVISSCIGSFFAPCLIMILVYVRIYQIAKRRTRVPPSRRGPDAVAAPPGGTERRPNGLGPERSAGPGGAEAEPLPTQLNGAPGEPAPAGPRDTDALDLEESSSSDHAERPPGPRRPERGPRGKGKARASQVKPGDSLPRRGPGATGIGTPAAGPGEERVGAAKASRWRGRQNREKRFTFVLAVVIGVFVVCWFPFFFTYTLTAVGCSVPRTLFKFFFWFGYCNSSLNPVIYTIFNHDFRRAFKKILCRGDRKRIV

T3: r GALR3 (Rattus norvegicus, UniProt O88626)
T3 sequence (O88626 1-370): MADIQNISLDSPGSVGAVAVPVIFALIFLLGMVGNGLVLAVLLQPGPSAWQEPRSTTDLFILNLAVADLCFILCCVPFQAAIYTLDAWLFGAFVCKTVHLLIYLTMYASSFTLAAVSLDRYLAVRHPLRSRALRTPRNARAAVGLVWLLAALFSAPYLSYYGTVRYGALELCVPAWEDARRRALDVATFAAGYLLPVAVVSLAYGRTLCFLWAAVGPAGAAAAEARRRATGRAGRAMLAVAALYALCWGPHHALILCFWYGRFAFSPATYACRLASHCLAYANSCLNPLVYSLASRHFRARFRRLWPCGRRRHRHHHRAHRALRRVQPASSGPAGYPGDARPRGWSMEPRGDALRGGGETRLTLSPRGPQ

T4: h α2C adr (Homo sapiens, UniProt P18825)
T4 construct: expressed in transfected cells; host or cells: COS-7
T4 sequence (P18825 1-462): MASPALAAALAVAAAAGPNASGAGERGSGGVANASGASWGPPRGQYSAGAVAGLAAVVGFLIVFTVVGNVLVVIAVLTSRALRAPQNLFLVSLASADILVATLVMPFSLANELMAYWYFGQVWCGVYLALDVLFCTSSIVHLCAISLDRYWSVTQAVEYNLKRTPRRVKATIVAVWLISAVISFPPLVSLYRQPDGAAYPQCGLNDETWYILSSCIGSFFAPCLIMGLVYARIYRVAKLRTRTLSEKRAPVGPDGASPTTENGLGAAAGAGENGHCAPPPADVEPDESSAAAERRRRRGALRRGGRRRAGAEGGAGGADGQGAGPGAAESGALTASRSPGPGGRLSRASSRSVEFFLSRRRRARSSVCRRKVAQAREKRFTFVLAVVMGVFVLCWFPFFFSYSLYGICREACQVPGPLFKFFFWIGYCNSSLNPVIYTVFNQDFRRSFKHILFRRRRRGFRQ

B1: cGαq/z5: chimeric Gα subunit: C-terminal final 5 amino acids of C. elegans Gαq replaced with those of hGαz (SEQ ID NO: 1) (protein)
chain: MACCLSEEAREQKRINQEIEKQLQRDKRNARRELKLLLLGTGESGKSTFIKQMRIIHGQGYSEEDKRAHIRLVYQNVFMAIQSMIRAMDTLDIKFGNESEELQEKAAVVREVDFESVTSFEEPYVSYIKELWEDSGIQECYDRRREYQLTDSAKYYLSDLRRLAVPDYLPTEQDILRVRVPTTGIIEYPFDLEQIIFRMVDVGGQRSERRKWIHCFENVTSIMFLVALSEYDQVLVECDNENRMEESKALFRTIITYPWFTNSSVILFLNKKDLLEEKILYSHLADYFPEYDGPPRDPIAAREFILKMFVDLNPDADKIIYSHFTCATDTENIRFVFAAVKDTILQHNLKYIGLC
modifications: C. elegans
B2: cGαq/z9: C. elegans Gαq with Gαz portion of the C-terminal tail extended to 9 amino acids (SEQ ID NO: 2) (protein)
chain: MACCLSEEAREQKRINQEIEKQLQRDKRNARRELKLLLLGTGESGKSTFIKQMRIIHGQGYSEEDKRAHIRLVYQNVFMAIQSMIRAMDTLDIKFGNESEELQEKAAVVREVDFESVTSFEEPYVSYIKELWEDSGIQECYDRRREYQLTDSAKYYLSDLRRLAVPDYLPTEQDILRVRVPTTGIIEYPFDLEQIIFRMVDVGGQRSERRKWIHCFENVTSIMFLVALSEYDQVLVECDNENRMEESKALFRTIITYPWFTNSSVILFLNKKDLLEEKILYSHLADYFPEYDGPPRDPIAAREFILKMFVDLNPDADKIIYSHFTCATDTENIRFVFAAVKDTILQNNLKYIGLC
modifications: C. elegans

Key:
Experiment in all cases: Calcium mobilization (FLIPR, Fluo-3) in transfected COS-7 cells
Format in all cases: cell-based
h GALR1 = target: T1, h GALR1; settings: h GALR1 + chimera in COS-7; agonist GAL, max 10 μM
Summary of the method: (§1)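 First, COS-7 cells receive GPCR and chimeric G protein cDNA by DEAE-dextran transfection. Agonist responses are finally recorded by FLIPR for 3 min at room temperature.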

h α2A adr = target: T2, h α2A adr; settings: h α2A adr + chimera in COS-7; agonist NE, max 100 μM
Summary of the method: as §1

r GALR3 = target: T3, r GALR3; settings: r GALR3 + chimera in COS-7; agonist GAL, max 10 μM
Summary of the method: as §1

h α2C adr = target: T4, h α2C adr; settings: h α2C adr + chimera in COS-7; agonist NE, max 100 μM
Summary of the method: as §1

| Molecule | MAXIMAL SIGNAL (FLUORESCENCE UNITS) (h GALR1) | MAXIMAL SIGNAL (FLUORESCENCE UNITS) (h α2A adr) | MAXIMAL SIGNAL (FLUORESCENCE UNITS) (r GALR3) | MAXIMAL SIGNAL (FLUORESCENCE UNITS) (h α2C adr) |
| --- | --- | --- | --- | --- |
| B1 | 7648 fluorescence units | 7575 fluorescence units | 2298 fluorescence units | 4143 fluorescence units |
| B2 | 8489 fluorescence units | 3040 fluorescence units | 2971 fluorescence units | 3874 fluorescence units |
